Series [1] has as its system B16-OVA melanoma. The series can be described thus: B16-OVA tumor growth in wild-type mice. The format is in vivo, mouse. The following applies: 5×10^5 B16-OVA in C57BL/6 mice, 10 μM i.v. 9 days after implantation (FIG. 19).
The target of series [2] is T1, His-YTHDF1 (361-559) (UniProt Q9BYJ9 SEQ:40-238).
T1 sequence: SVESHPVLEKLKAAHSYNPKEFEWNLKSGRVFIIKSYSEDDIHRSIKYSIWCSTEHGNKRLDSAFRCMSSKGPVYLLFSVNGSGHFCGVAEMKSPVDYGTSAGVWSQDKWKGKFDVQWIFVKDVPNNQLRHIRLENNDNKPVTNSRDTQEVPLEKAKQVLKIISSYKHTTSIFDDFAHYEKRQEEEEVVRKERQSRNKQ
The series can be described thus: AlphaScreen; 20 mM Hepes pH 7.4, 150 mM NaCl, BSA, TritonX-100; binding inhibited by SAA. Conditions: tags: His; label: 5'-biotin. On the procedure:
Then 10 nM biotinylated m⁶A-containing mRNA (5′-biotin-[…] (m⁶A) CUGUG-3′) (SEQ ID NO: 15) was added to bind with YTHDF1 (361-559), and unbiotinylated m⁶A-containing mRNA was used as the positive control. Before Alpha signal detection, streptavidin donor beads and anti-His acceptor beads were added into the white assay plate in subdued light (OptiPlate™-384, PerkinElmer) and incubated at 4° C. for 1 hour to ensure sufficient binding between biotin tag and streptavidin donor beads, as well as that between His tag and anti-His acceptor beads. Then the Alpha signal was detected on Envision Readers (PerkinElmer).
(Alpha assays give light when donor and acceptor beads are brought close together.)

Series [3] deals with T2, YTHDF1 (361-559), YTH domain (UniProt Q9BYJ9 SEQ:3-201).
T2 sequence: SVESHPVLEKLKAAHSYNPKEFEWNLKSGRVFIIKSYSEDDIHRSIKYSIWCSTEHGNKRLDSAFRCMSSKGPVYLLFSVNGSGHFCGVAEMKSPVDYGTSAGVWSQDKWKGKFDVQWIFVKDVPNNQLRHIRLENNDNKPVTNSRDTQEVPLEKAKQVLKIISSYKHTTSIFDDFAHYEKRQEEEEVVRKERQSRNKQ
Put plainly: FP; value only in figure; 20 mM Hepes pH 7.4, 50 mM NaCl, 0.01% tween 20, 5% glycerol, 4 C. Conditions: tags: GST tag removed; E. coli BL21(DE3); label: 5'-FAM.

The target in series [4] is T3, YTHDF1 C-terminal truncation (UniProt Q9BYJ9 SEQ:3-174).
T3 chain: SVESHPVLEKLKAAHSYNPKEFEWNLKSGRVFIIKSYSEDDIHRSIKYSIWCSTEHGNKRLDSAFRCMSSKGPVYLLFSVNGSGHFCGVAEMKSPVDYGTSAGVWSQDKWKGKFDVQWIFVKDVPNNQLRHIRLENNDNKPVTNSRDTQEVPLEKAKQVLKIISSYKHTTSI
The series can be described thus: FP; value only in figure; affinity not influenced vs wild type. The following applies: tags: GST tag removed; label: 5'-FAM.

Series [5] concerns the target T4, YTHDF1 (361-559) N378A (UniProt Q9BYJ9 SEQ:3-201, N378A).
T4 sequence: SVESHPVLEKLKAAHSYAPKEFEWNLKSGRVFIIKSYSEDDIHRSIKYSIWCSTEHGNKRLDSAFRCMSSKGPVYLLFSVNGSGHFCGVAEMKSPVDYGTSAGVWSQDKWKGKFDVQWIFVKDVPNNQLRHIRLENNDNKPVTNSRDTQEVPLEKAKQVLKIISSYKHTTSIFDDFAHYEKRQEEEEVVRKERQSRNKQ
The description is as above. Conditions: tags: GST tag removed; label: 5'-FAM.

The target of series [6] is T5, YTHDF1 (361-559) H528A (UniProt Q9BYJ9 SEQ:3-201, H528A).
T5 sequence: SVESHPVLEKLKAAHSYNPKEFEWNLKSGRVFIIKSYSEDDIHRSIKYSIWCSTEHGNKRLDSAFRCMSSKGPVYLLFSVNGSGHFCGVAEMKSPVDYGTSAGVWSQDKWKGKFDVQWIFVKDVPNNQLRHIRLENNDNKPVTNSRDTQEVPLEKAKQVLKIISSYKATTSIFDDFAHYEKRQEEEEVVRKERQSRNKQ
The description is as above. The following applies: tags: GST tag removed; label: 5'-FAM.

In series [7] the target is T6, YTHDF1 (361-559) F382A (UniProt Q9BYJ9 SEQ:3-201, F382A).
T6 sequence: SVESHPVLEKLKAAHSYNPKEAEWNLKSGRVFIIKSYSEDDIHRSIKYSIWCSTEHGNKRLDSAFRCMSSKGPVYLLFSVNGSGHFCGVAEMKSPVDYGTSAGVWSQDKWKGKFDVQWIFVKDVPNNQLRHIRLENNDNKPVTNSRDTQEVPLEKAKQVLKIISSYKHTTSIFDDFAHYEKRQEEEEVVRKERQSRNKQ
The series is described as above. The following applies: tags: GST tag removed; label: 5'-FAM.

The target in series [8] is T7, YTHDF1 (361-559) F480A (UniProt Q9BYJ9 SEQ:3-201, F480A).
T7 sequence: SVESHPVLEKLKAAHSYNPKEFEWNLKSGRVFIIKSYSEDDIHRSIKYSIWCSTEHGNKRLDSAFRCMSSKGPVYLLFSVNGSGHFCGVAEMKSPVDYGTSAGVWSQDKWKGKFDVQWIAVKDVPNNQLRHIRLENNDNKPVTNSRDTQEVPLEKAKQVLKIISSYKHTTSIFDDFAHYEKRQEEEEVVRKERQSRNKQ
The series is described as above. The following applies: tags: GST tag removed; label: 5'-FAM.

Series [9] addresses T8, YTHDF1 (361-559) W384A (UniProt Q9BYJ9 SEQ:3-201, W384A).
T8 sequence: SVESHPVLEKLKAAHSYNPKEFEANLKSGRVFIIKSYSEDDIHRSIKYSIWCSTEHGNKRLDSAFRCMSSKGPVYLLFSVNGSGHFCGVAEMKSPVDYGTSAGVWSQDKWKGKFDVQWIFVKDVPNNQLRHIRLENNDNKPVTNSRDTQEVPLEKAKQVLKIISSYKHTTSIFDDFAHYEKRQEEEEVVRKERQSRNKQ
The series is described as above. The following applies: tags: GST tag removed; label: 5'-FAM.

The target of series [10] is T9, YTHDF1 (361-559) Y397A (UniProt Q9BYJ9 SEQ:3-201).
T9 chain: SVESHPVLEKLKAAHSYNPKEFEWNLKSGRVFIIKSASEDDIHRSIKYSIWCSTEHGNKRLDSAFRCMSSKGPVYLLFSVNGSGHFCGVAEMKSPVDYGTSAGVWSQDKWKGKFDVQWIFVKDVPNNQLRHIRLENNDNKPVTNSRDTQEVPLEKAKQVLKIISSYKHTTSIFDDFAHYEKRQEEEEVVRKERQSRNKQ
Put plainly: FP; binding seen through SAA inhibition assay; affinity not given. Conditions: tags: GST tag removed; label: 5'-FAM.

Series [11] deals with T10, YTHDF1 (361-559) R506A (UniProt Q9BYJ9 SEQ:3-201).
T10 chain: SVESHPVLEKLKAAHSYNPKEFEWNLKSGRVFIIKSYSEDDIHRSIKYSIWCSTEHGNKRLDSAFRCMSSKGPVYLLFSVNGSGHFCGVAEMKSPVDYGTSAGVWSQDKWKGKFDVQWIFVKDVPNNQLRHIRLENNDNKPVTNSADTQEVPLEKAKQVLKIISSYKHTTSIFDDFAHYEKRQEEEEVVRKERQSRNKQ
Described as above. The following applies: tags: GST tag removed; label: 5'-FAM.

For series [12], the target named is T11, YTHDF1 (361-559) C412A (UniProt Q9BYJ9 SEQ:3-201).
T11 chain: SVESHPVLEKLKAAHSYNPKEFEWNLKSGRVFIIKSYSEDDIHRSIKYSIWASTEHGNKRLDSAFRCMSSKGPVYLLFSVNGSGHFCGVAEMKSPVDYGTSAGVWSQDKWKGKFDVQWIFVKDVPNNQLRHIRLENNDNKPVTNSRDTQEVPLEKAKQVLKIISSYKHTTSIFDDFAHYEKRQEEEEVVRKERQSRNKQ
Described as above. The following applies: tags: GST tag removed; label: 5'-FAM.

Series [13] concerns the target T12, YTHDF1 (361-559) K395A (UniProt Q9BYJ9 SEQ:3-201).
T12 chain: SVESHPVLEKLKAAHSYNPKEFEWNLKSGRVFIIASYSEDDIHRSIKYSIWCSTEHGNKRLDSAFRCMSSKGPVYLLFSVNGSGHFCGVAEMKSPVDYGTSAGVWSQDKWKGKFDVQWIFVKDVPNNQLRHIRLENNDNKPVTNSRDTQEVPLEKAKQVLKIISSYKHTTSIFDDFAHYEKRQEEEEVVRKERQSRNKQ
Described as above. Conditions: tags: GST tag removed; label: 5'-FAM.

For the molecule `O=C(/C=C/c1ccc(O)c2oc(-c3ccc(O)c(O)c3)cc12)O[C@H](Cc1ccc(O)c(O)c1)C(=O)O` [SAC, Salvianolic Acid C], the “tumor growth versus DMSO” value in series [1] is “tumor growth was much slower”.

As to UUCUUCUGUGGACUGUG (ssRNA, m6A at position 12 (UUCUUCUGUGG(m6A)CUGUG)) [5'-biotin m6A-containing mRNA], the binding result in [2] is recorded as “binds”.

As for UUCUUCUGUGGACUGUG (ssRNA, m6A at position 12 (UUCUUCUGUGG(m6A)CUGUG)) [5'-FAM m6A-containing mRNA], the binding result in series [3], in [4], in series [5], in series [6], in series [7] and in [8] was “binds” throughout. Moreover, the binding result in series [9], in series [10], in series [11], in series [12] and in series [13] was “binds” in each case.

Source of the values: patent US20240033244A1, “COMPOSITIONS AND METHODS FOR INHIBITING YTHDF1” (SHANGHAI INSTITUTE OF MATERIA MEDICA, CHINESE ACADEMY OF …, priority 2020, published 2024).
